Data on three substances can be found in patent US20250270167A1.

This test concerns the target GHR.

“Jintropin (commercially available rhGH drug, Changchun GeneScience Pharmaceutical Co., Ltd.) (from UniProt P01241) (ligand)” came in with an EC50 (chemiluminescence value, ONE-Glo, HEK293-GHR cells) of 0.0126 µg/mL.

“Polyethylene Glycol Recombinant Human Somatropin Injection (commercially available PEG-rhGH drug, Changchun GeneScience Pharmaceutical Co., Ltd.) (from UniProt P01241) (ligand)” displayed an EC50 (chemiluminescence value, ONE-Glo, HEK293-GHR cells) of 0.0686 µg/mL and a Relative activity (%) of 18%.

For “rhGH standard product of National Institutes for Food and Drug Control (from UniProt P01241) (ligand)”, the EC50 (chemiluminescence value, ONE-Glo, HEK293-GHR cells) stood at 0.012 µg/mL.
